The target of experiment [1] is human ICOS as used for the 'ICOS OD' read-out of Table 14 (human). The experiment is described as follows: binding read as OD; format not described.
In experiment [2] the target is human CD28, full-length, expressed on transfected Expi293 cells (human) (UniProt P10747). The experiment in a line: flow cytometry on CD28-expressing Expi293 cells. (In general: Flow cytometry measures light scatter and fluorescence of single cells or particles in a stream.)
Experiment [3] concerns the target T1, TIGIT (human) (UniProt Q495A1).
T1 sequence: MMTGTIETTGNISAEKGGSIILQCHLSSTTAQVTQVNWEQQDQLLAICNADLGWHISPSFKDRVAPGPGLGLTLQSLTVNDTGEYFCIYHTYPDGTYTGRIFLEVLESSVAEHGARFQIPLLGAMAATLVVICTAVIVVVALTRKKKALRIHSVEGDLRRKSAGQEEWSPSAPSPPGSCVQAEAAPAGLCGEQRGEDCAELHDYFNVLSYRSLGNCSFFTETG
The experiment is described as follows: flow cytometry, transfected cells.

The target of experiment [4] is T2, CD226 (human) (UniProt Q15762).
T2 sequence: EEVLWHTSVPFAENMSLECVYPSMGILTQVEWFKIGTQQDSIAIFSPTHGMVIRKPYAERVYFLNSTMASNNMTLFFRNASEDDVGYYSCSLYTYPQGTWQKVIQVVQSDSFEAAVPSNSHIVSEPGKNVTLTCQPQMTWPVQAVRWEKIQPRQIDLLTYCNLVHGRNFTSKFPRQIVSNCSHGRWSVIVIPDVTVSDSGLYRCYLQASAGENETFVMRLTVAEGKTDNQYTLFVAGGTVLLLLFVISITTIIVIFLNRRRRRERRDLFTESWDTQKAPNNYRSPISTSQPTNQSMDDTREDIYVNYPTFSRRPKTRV
The experiment in a line: flow cytometry, transfected cells.

Experiment [5] addresses T3, CD96 (UniProt P40200).
T3 sequence (looked up): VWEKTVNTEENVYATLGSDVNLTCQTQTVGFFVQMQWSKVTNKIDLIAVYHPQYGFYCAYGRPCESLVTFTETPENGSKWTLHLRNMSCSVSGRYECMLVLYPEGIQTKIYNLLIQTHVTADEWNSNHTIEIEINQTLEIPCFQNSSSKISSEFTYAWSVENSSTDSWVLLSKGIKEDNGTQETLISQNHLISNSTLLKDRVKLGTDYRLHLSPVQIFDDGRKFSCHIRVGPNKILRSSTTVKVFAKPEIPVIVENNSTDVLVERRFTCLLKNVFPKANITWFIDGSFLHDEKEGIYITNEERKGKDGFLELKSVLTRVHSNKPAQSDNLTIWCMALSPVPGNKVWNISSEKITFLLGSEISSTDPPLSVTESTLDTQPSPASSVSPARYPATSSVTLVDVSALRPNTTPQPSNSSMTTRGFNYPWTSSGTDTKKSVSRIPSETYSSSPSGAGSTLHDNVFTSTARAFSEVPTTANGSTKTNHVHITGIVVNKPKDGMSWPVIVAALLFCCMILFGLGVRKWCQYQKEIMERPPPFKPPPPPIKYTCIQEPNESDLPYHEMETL
The experiment in a line: flow cytometry, cells.

In US20200040059A1 one finds ICOS OD parental ratio (ratio to WT ICOSL ECD-Fc), MFI and MFI parental ratio (ratio to WT ICOSL ECD-Fc) data, which are given here for 2 molecules.

Sequence of human ICOS as used for the 'ICOS OD' read-out of Table 14 (human) (Q9Y6W8 whole entry): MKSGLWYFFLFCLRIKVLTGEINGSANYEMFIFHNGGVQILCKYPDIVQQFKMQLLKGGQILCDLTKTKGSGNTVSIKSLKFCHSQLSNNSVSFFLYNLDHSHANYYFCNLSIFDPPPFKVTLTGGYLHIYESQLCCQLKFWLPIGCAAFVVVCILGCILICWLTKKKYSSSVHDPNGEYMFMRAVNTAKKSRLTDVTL

B1: ICOSL variant N52S/T113E ECD-Fc fusion (Fc fusion, UniProt O75144 19-256 with N52S T113E, looked up, part only)
extracellular domain: DTQEKEVRAMVGSDVELSCACPEGSRFDLNDVYVYWQTSESKTVVTYHIPQSSSLENVDSRYRNRALMSPAGMLRGDFSLRLFNVTPQDEQKFHCLVLSQSLGFQEVLSVEVELHVAANFSVPVVSAPHSPSQDELTFTCTSINGYPRPNVYWINKTDNSLLDQALQNDTVFLNMRGLYDVVSVLRIARTPSVNIGCCIENVLLQQNLTVGSQTGNDIGERDKITENPVSTGEKNAAT
modifications: extracellular domain human IgG1 Fc fusion
In the case of B1, the ICOS OD parental ratio (ratio to WT ICOSL ECD-Fc) in experiment [1] was determined as 1.76. Besides, in experiment [2], the MFI came to 54 MFI and the MFI parental ratio (ratio to WT ICOSL ECD-Fc) worked out at 3.

B2: CD155 G7E, P18T, Y30C, F91S IgV-Fc (Fc fusion, not shown: a dimerising Fc or GST; small tags and cut ends)
chain: PGTEDVVVQAPTQVTGFLGDSVTLPCCLQVPNMEVTHVSQLTWARHGESGSMAVFHQTQGPSYSESKRLEFVAARLGAELRNASLRMSGLRVEDEGNYTCLFVTFPQGSRSVDIWL
As to B2, the MFI in experiment [3] turned out to be 13000; in experiment [4], 12900; in experiment [5] it was 7910.
